Assay results: publication PMC11161584

Target: PTRAMP-CSS heterodimer (Plasmodium thrombospondin-related apical merozoite protein with small cystei (P. falciparum (3D7 clone)))
Test: SPR

“RH5-interacting protein (RIPR), full-length soluble recombinant protein (from UniProt O97302 20-1086) (natural protein)” was tested, and the Kd was 4.5 µM.
